The target in test [1] is mitogen-activated protein kinase-activated protein kinase 2 (human MK2) (human), P49137. The test can be described thus: kinase inhibition, radiometric assay. Conditions: modification not given.
Test [2] addresses PKCδ (h) (protein kinase C) (human), Q05655. The test can be described thus: cell-based or functional assay.

A word on the IC50: it is the concentration needed to halve the response being measured. A lower IC50 goes with greater potency.

PKCδ (h) (protein kinase C) (human), Q05655, sequence (Q05655 whole entry, stated change not applied): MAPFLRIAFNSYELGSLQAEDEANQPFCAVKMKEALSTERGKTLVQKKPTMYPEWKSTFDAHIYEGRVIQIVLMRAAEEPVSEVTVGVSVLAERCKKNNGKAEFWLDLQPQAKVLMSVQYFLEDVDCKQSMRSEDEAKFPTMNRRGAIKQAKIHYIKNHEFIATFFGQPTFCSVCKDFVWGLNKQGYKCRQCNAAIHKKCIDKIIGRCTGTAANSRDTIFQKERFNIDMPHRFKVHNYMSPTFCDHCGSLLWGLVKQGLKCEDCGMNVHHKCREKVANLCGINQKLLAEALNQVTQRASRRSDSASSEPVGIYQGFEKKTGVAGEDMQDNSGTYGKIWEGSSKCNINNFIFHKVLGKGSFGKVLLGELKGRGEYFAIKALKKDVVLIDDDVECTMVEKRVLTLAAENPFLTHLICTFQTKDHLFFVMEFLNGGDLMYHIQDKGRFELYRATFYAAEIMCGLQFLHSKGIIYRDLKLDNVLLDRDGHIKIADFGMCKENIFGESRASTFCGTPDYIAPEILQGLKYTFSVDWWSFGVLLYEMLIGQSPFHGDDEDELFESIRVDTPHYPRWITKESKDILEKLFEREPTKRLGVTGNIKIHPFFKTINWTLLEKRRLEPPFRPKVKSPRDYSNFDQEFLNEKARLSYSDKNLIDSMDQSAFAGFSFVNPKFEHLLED
mitogen-activated protein kinase-activated protein kinase 2 (human MK2) (human), P49137, sequence (P49137 46-400): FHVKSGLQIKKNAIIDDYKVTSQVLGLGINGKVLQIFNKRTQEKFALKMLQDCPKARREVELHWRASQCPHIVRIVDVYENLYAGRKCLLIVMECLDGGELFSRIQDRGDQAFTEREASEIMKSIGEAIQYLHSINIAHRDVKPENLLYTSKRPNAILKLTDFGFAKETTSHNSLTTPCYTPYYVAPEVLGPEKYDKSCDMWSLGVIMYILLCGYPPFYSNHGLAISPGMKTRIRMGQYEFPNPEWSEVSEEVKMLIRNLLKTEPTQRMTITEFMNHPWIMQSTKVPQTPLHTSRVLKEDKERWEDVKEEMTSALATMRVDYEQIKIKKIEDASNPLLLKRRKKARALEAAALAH

Take YARAAARQARAKALNRQLAVA: the IC50 in test [1] was found to be 18.9 µM.

As for YARAAARQARAKALARQLAVA, in test [1], the IC50 was found to be 28.4 µM.

As for WLRRIKAWLRRIKALNRQLGVAA, in test [2], the Kinase Activity, peptide at 30 µM, radiometric assay was 11%. For the same molecule, the IC50 in test [1] came to 0.737 µM.

YARAAARQARALARQLGVAA had a Kinase Activity, peptide at 300 µM, radiometric assay in test [2] of 101%.

FAKLAARLYRLARQLGVAA came in with a Kinase Activity, peptide at 100 µM, radiometric assay in test [2] of 40%.

As for YARAAARQARALNRQLGVAA, the Kinase Activity, peptide at 300 µM, radiometric assay in test [2] is 105%.

Regarding FAKLAARLYRKALARQLGVAA, the IC50 in test [1] is 1.77 µM.

As to KAFAKLAARLYRLARQLGVAA, in test [2], the Kinase Activity, peptide at 100 µM, radiometric assay came out at 24%.

These data come from patent US20100158968A1.
